The record followed here is paper PMC6030175, “A senataxin-associated exonuclease SAN1 is required for resistance to DNA interstrand cross-links”.

The target in the series is T1, SAN1 D90A (catalytically inactive) (mouse or human ( for the …, UniProt Q6RI63 1-786, D90A)).
T1 sequence: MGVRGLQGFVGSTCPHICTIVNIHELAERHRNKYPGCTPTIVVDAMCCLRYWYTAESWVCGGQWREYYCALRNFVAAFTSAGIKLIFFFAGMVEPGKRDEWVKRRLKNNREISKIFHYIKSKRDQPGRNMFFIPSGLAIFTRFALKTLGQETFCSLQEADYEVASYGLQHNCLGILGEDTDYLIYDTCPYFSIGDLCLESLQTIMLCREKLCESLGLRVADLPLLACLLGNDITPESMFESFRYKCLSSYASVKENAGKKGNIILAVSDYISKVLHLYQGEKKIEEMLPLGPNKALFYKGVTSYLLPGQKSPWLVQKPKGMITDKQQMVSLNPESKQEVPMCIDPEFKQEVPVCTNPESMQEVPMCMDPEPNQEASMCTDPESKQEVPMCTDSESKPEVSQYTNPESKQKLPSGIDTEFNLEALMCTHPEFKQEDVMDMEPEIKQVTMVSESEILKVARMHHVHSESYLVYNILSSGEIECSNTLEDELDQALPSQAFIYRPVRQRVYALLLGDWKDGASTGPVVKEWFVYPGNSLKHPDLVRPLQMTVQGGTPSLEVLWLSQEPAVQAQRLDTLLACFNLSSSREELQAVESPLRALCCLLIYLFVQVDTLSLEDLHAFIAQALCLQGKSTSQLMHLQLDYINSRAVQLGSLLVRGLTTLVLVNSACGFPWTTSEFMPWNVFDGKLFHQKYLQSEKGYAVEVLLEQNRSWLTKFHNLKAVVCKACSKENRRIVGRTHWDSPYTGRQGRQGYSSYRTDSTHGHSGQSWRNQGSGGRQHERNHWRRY
The series is described as follows: EMSA; 5 mM Mg2+; protein 0, 1, 5, 10, 20 nM; DNA 1 nM; EMSA: 20 mM HEPES pH 7.4, 0.1% NP-40, 0.1 M KCl, 5 mM MgCl2, 1% glycerol, 0.25 ug/uL BSA, 1 mM DTT, 30 min, room temperature; 5% native gel, 0.5x TBE. The conditions noted are these: protein: recombinant; tags: Strep-tag II (murine, C-terminal) or Strep-FLAG (human); label: 5' 32P; single strand 50 nt.

Take AACGTCATAGACGATTACATTGCTAGGACATCTTTGCCCACGTTGACCCA (ssDNA) [X4]: the binding result was “binds”.
